The record followed here is the DeepSol protein solubility set.

The nature of this data set: soluble on expression in E. coli; label from the status in PepcDB or PDB records.
Turning to “MATGDGKSVMVVGVDDSEQSTYALEWTLDRFFAPYAPNYPFKLFIVHAKPNAVSAVGLAGPGTAEVVPYVDADLKHTAAKVVEKAKAICQSRSVHGAVIEVFEGDARNILCEVVDKHHASILVVGSHGYGAIKRAVLGSTSDYCAHHAHCSVMIVKKPKIKV”, the “soluble on expression in E. coli” value is “soluble”.

As to “MKFVLAVHGTRGDVEPCAAVGVELRRRGHAVHMAVPPNLIEFVESAGLTGVAYGPDSDEQINTVAAFVRNLTRAQNPLNLARAVKELFVEGWAEMGTTLTTLADGADLVMTGQTYHGVAANVAEYYDIPAAALHHFPMQVNGQIAIPSIPTPATLVRATMKVSWRLYAYVSKDADRAQRRELGLPPAPAPAVRRLAERGAPEIQAYDPVFFPGLAAEWSDRRPFVGPLTMELHSEPNEELESWIAAGTPPIYFGFGSTPVQTPVQTLAMISDVCAQLGERALIYSPAANSTRIRHADHVKRVGLVNYSTILPKCRAVVHHGGAGTTAAGLRAGMPTLILWDVADQPIWAGAVQRLKVGSAKRFTNITRGSLLKELRSILAPECAARAREISTRMTRPTAAVTAAADLLEATARQTPGSTPSSSPGR”, the “soluble on expression in E. coli” value was “not soluble”.

For the sequence “SLHRILLVDDEKDVGKIVSRLLAGDNYEIEQVTTGKEAMKRVLEESLPDIILLDINLPDIDGMDMLRDMKDAVRGTPIVMMTAYGSIETAVRSIKMGAMDFVQKPFNHYDFKRFINGVISARNIAGNDHCGIVGSSPQMKKVFRLVDKFALSDITILLQGESGTGKELFARAIHQKSKRRSGPFVPLDCAALSETLIESELFGHEKGAFTGATERKIGKFERAHGGTLFIDEVENLSSSNQAKLLRAVEEKQIERVGGTKAIKVDVRIVAASNIPLTEIINNGVFRKDLFYRFSQMTIAIPSLRDRVKDVDVLIRHFLAAYSEEFGNAANISEEALLLLNAYPWPGNVRELENVVKSAVILADGDILAKHLPEYIRKGSEG”, the “soluble on expression in E. coli” value is on record as “soluble”.

“MMKEQNIPQDSLIAGYLPADYCDSFSRNVVSEKAITSDEFFDMAFNHSPGWVNGLMKLRNAIVKPLGLEVGMRFADTICEQNAQEVVFGMPDKHLTFHASLWCGEKEPGGQTFTITTVVKFNNRLGRLYFFFIRPFHKVIIRSMLKRVAKRLK”: the “soluble on expression in E. coli” value is given as “not soluble”.

Regarding “MFRLGTTPRATTYDPDARIGEVASRFGLPTRVLIEIVRTESFQRSLARVTSGKPVVLDLRELDSDLASWIATHARLVEPALRELVRTVAPDVEPRVRFRGLPHRFRRVERIRPMDGALISIEGVVREVRGAERLEHAIVDTGSELVAVRLHGHRLGPGLRVEILGIVRSATLDALEVHKKDPIPEVHPDPAELEEFRELADKDPLTTFARAIAPLPGAEEVGKMLALQLFSCVGKNSERLHVLLAGYPVVCSEILHHVLDHLAPRGVYVDLRRTELTDLTAVLKEDRGWALRAGAAVLADGGILAVDHLEGAPEPHRWALMEAMDKGTVTVDGIALNARCAVLAAINPGEQWPSDPPIARIDLDQDFLSHFDLIAFLGVDPRPGEPEEQDTEVPSYTLLRRYLLYAIREHPAPELTEEARKRLEHWYETRREEVEERLGMGLPTLPVTRRQLESVERLAKAHARMRLSDDVEPEDVDIAAELVDWYLETAMQIPGGDEIRISSLKP”, the “soluble on expression in E. coli” value is “soluble”.

As for “GSSGSSGMCGRFAQSQTREDYLALLAEDIERDIPYDPEPIGRYNVAPGTKVLLLSERDEHLHLDPVFWGYAPGWWDKPPLINARVETAATSRMFKPLWQHGRAICFADGWFEWKKEGDKKQPFFIYRADGQPIFMAAIGSTPFERGDEAEGFLIVTAAADQGLVDIHDRRPLVLSPEAAREWMRQEISGKEASEIAASGCVPANQFSWHPVSRAVGNVKNQGAELIQPV”, the “soluble on expression in E. coli” value is listed as “soluble”.

“MSASIRDAGVADLPGILAIYNDAVGNTTAIWNETPVDLANRQAWFDARARQGYPILVASDAAGEVLGYASYGDWRPFEGFRGTVEHSVYVRDDQRGKGLGVQLLQALIERARAQGLHVMVAAIESGNAASIGLHRRLGFEISGQMPQVGQKFGRWLDLTFMQLNLDPTRSAP”: the “soluble on expression in E. coli” value is “soluble”.

Turning to “MAQALWTRNKSEITDEEYKEFYKHIAHDFNDPLTWSHNRVEGKQEYTSLLYIPSQAPWDMWNRDHKHGLKLYVQRVFIMDDAEQFMPNYLRFVRGLIDSSDLPLNVSREILQDSTVTRNLRNALTKRVLQMLEKLAKDDAEKYQTFWQQFGLVLKEGPAEDFANQEAIAKLLRFASTHTDSSAQTVSLEDYVSRMKEGQEKIYYITADSYAAAKSSPHLELLRKKGIEVLLLSDRIDEWMMNYLTEFDGKPFQSVSKVDESLEKLADGDLGTLVPRGSMAISDPNSSSVDKLAAALEHHHHHH”, the “soluble on expression in E. coli” value is reported as “soluble”.

As to “MSLKILGIETSCDETGVAIYDEEKGLIANQLYTQIALHADYGGVVPELASRDHIRKTAPLIKAALEEANLTASDIDGIAYTSGPGLVGALLVGATIARSLAYAWNVPAIGVHHMEGHLLAPMLDDNSPHFPFVALLVSGGHTQLVRVDGVGKYEVIGESIDDAAGEAFDKTAKLLGLDYPGGAALSRLAEKGTPNRFTFPRPMTDRAGLDFSFSGLKTFAANTVNQAIKNEGELIEQTKADIAYAFQDAVVDTLAIKCKRALKETGYKRLVIAGGVSANKKLRETLAHLMQNLGGEVFYPQPQFCTDNGAMIAYTGFLRLKQGQHSDLAIDVKPRWAMAELPAIEGHHHHHH”, the “soluble on expression in E. coli” value is reported as “soluble”.

In the case of “SDPDADRVGIACKNDKGEWVLINGNQTCLMYLYYIITQYNKLGKMTGNEFCVKTIVTTELIKKIADKNHIEMLDCYTGFKWIAREIRLREGKKKYIGGGEESYGFLAEDFVRDKDAVSACCLIAEVAAWAKDNGKTLYQLLMDIYVEYGFSKE”, the “soluble on expression in E. coli” value is given as “not soluble”.

With “MSLNRFRKWLYKPKRSDPQLLARFYYADEELNQVAAELDSLDGRKDPQRCTLLVSQFRSCQDNVLNIINQIMDECIPQDRAPRDFCVKFPEEIRHDNLAGQLWFGAECLAAGSIIMNRELESMAMRPLAKELTRSLEDVRGALRDQALRDLNTYTEKMREALRHFDVLFAEFELSYVSAMVPVKSPREYYVQQEVIVLFCETVERALDFGYLTQDMIDDYEPALMFSIPRLAIVCGLVVYADGPLNLDRKVEDMSELFRPFHTLLRKIRDLLQTLTEEELHTLERNLCISQDVEFPIRADEGHHHHHH”, the “soluble on expression in E. coli” value was “not soluble”.

Take “SKLLDKDGKVFAEVGTERREYIEYKDIPETLKNAILTTEDARFYEHDGIDPIRLGGAVVANVTDGFGAEGASTLSQQIIKMSYLDYTNKTLARKAQEAWLALQLEEKYSKNDILEIYVNKVYMSDRVHGMQTAAEHYFGKNVKDLTLAETALLAGMPQSPNNYNPYDHP”: the “soluble on expression in E. coli” value is recorded as “not soluble”.

Turning to “MDKLKIIMEKGTERLKRGFAKMVKGGVIMDVTNAEQARIAEEAGAVAVMALHKVPADIRKAGGVARMAPVEKIQEIMDAVTIPVMAKCRIGHEAEARILEALGVDMIDESEVLTPADPFFHIYKKKFTAPFVCGARNLGEAVRRIWEGAAMIRTKGEAGTGNIIEAVRHVRLVNENIRLIQRMTDEEIYGVAEKFAEPYLRLAFSVKEISGLPKRVLENEPIYEGFTYREIVEDIYKILLEIKKLGRLPVVNFAAGGVATPADAALMMAMGMDGVFVGSGIFKSSNPPKMARAIVEAVNHWDEPDVLAEISREIGEPMRGQAIEELQVRMEERGILEHHHHHH”, the “soluble on expression in E. coli” value was “not soluble”.

Take “MGSDKIHHHHHHMSKPAYLVEADGVNITKQIADRLLSLTVVDEAEQLSDRVEIVLDDRDKLLEIPKSGTWLKVYLGYAEGGKLPVYMGTYAVDDLTLSNGPRSMVVRATALETAPAMKDSRTQSWHDTTLGEIARTIASRSGLELRIVGDVGSIPIKHEDQTAESDIAFLTRLARRLKITAKPIDKALWITRRASDIPATPGVELAQRIVKGDEVSDWRATIKNRGAYSRVKARYFDQDEKKEKLLTVGPEDGNLQTFEEKQLYKTRDEAQRAADSRLQSLQSGEVTIDFSMEGDPEFTAEGQVTLQDFRALVDGTWYIRNVTHKFDGNGYRTTVTCGTKGEANNDWSAGRGENDKRSASEKGSLLCKTAQQLRGFSTQGGPDGGRNACVWAVNRVFQKAGLTTPWGGSNYVPDAEAALRRSGAQQVSGPEPGAIAIFTDGGNPPQAHIGIVTCDGGRVISNSSSRPTRTRLASPSEYQGFYSGPIRYYRLK”: the “soluble on expression in E. coli” value is recorded as “not soluble”.
